# Test results taken from the RNAGym collection of RNA variant scans (doi:10.7554/elife.80360).
# B1: HDV Ribozyme (parent)
# chain: GGCCGGCAUGGUCCCAGCCUCCUCGCUGGCGCCGGCUGGGCAACAUUCCGAGGGGACCGUCCCCUCGGUAAUGGCGAAUGGGACCCA
# Variants of: B1
# Assay: self-cleavage, relative activity (ratio to wild type); higher = more cleavage; co-transcriptional
row,Variant,self-cleavage
1,GGCCGGCGUGGUCCCGGCCUCCUCGCUGGCGCCGGCUGGGCAACAUUCCGAGGGGACCGUCCCCUCGGUAAUGGCGAAUGGGACCCA [A8G A16G],1.14
2,GGCCGGCAUGGUCCCAGCCUCCUCGCUGGCGCCGGCUGGGGAACAUUCCGAGGGGACCGUCCCCUCGGUAAUGGCGAAUGAGACCCA [C41G G81A],0.188
3,GGCCGGCAUGGUCCCAGCCUCCUCGCUGGCGCCGGCUGGGCAACAUUCCGAGGGGACCGUCCCCUCCGUAAUGGCGAAUUGGACCCA [G67C G80U],0.223
4,GGCCGGCAUUGGCCCAGCCUCCUCGCUGGCGCCGGCUGGGCAACAUUCCGAGGGGACCGUCCCCUCGGUAAUGGCGAAUGGGACCCA [G10U U12G],0.172
5,UGCCGGCAUGGUCCCAGCCUCCUCGCUGGCGCCGGCUGGGCAACAUUCCGAGGGGACCGUCCCCUCGGUAACGGCGAAUGGGACCCA [G1U U72C],0.237
6,GGCCGGCAUGGUCCCAGCCUCCUCGCUGUCGCCGGCUGGGCAACAUUCCGAGGGGACCGUCCCCUCGGUAAUGGCGAAUGGGACCCU [G29U A87U],0.111
7,GUCCGGCAUGGUCCCAGCCUCCUCGCUGGCGCCGGCUGGGUAACAUUCCGAGGGGACCGUCCCCUCGGUAAUGGCGAAUGGGACCCA [G2U C41U],0.0419
8,GGCCGGCAUGGUCCCAGCCUCCUCGCUGGCGCCGGCUGGGCAACAUUCCGAGGGGACCGUCCCCUCGUUAAUGGCGAAUGGAACCCA [G68U G82A],0.153
9,GGCCGGCAUGGUCCCAGCCUCCUCGCUGGCGCCGGCUGGGCAACAUUCCGAGGGGACCGUCCCCUCGGUAAUUGCGAAUGGGACACA [G73U C85A],0.397
10,GGCCGGCAUGGUCCCAGCCUCCUCGCUGGCGCCGGCUGGGCAACAUUCCGAGGGGACCGACCCCUCGGUAAUGGCGAAUGAGACCCA [U60A G81A],0.514
11,GGCCGGCAUGCUCCCAGCCUCCUCGCUGGCGCCGGCUGGGCAACAUUCCGAGGGGACCGUCCCCUCGGUAAUGGCGAAUGGUACCCA [G11C G82U],0.104
12,GGCCGGCAUGGUCCCCGCCUCCUCGCUGGCGCCGGCUGGGCAACAGUCCGAGGGGACCGUCCCCUCGGUAAUGGCGAAUGGGACCCA [A16C U46G],0.332
13,GGCCGGCAUGGUCCCAGCCUCCUCGCUGGCGCCGGCUGGGCAACAUUCCGAGGCGACCGUCCCCUCGGUAAUGGGGAAUGGGACCCA [G54C C75G],0.151
14,GGCCGGCAUGGUCCCAGCCUACUCGCUGGCGCCGGCUGGGCAACAUUCCGAUGGGACCGUCCCCUCGGUAAUGGCGAAUGGGACCCA [C21A G52U],0.107
15,GGCCGGCAUGGUCCCCGCCUCCUUGCUGGCGCCGGCUGGGCAACAUUCCGAGGGGACCGUCCCCUCGGUAAUGGCGAAUGGGACCCA [A16C C24U],0.287
16,GGCCGGCAUGGUCCCAGCCUCCUCGCUGGCGCCGGCUGGGCAAAGUUCCGAGGGGACCGUCCCCUCGGUAAUGGCGAAUGGGACCCA [C44A A45G],1.01

row,Variant,self-cleavage
1,GGCCGGCAUGGUCCCAGCCUCCCCGCUGGCGCCGGCUGGGCAACAUUCCGAGGGGACCGUCCCCUCGGUAAUGGCGAAUGGGGCCCA [U23C A83G],0.742
2,GGCCGGCAUGGUCCCAGCCUCCUCGCUGGCGUCGGCUGGGCAACAUUCCGAGGGGACCGUCCCCUCGGUAAUGGCGAAUCGGACCCA [C32U G80C],0.132
3,GGCCGGCAUGGUCCCAGACUCCUCGCUGGCGCCGGCUGGGCACCAUUCCGAGGGGACCGUCCCCUCGGUAAUGGCGAAUGGGACCCA [C18A A43C],0.0462
4,GGCCGGCAUGGUCCCAGCCUCCUCGCUGGCGCCGGCUAGGCUACAUUCCGAGGGGACCGUCCCCUCGGUAAUGGCGAAUGGGACCCA [G38A A42U],0
5,GGCCGGCAUGGUCCCAGCCUCCUCGCUGGCGCCGGCUGGGCAACAUUCCGAGGGGACCGUCCCCUCGGUAGUGGAGAAUGGGACCCA [A71G C75A],0.158
6,GACCGGCAUGGUCCCAGCCUCCUCGCUGGCGCCGGCUGGGCAACAUUCCGAGGGGACCGUCCCCUCGCUAAUGGCGAAUGGGACCCA [G2A G68C],0.177
7,GGCCGGCAUGGUCCCAGCCUCCUCGCUGGUGCCGGCUGGGCACCAUUCCGAGGGGACCGUCCCCUCGGUAAUGGCGAAUGGGACCCA [C30U A43C],0.158
8,GGCCGACAUGGUCCCAGCCUCCUCGCUGGCGCCGGCUGGGCAAUAUUCCGAGGGGACCGUCCCCUCGGUAAUGGCGAAUGGGACCCA [G6A C44U],0.457
9,GGCCGGCAUGGUCGCAGCCUCCUCGCUGGCGCCGGCUGGGCAACAUUCCGAGGGGACCGUCCCCUCGGUAAUGGCGAAUGGGACCCC [C14G A87C],0.793
10,GGCCGGCAUAGUCCCAGCCUCCUCGCUGGCGCCGGCUGGGCAACAUUCCGAGGGGACCGUACCCUCGGUAAUGGCGAAUGGGACCCA [G10A C61A],0.674
11,GGCCGGCAUGGUCCCAGCCUCCUCGCUGGCGCCGGCUGAGCAACAUUCCCAGGGGACCGUCCCCUCGGUAAUGGCGAAUGGGACCCA [G39A G50C],0.504
12,GGCCGGCAUGGUCCCAGCCUCCUCGGUGGCGCCGGCUGGGCAACAUUCCGAGGGGACCGUCCCUUCGGUAAUGGCGAAUGGGACCCA [C26G C64U],0.99
13,GGCCGGCAUGGUCCCAGCCUCCUCGCUGGCGCCGGCUGGGCAACAUUCCGAGGGGGCCGUCCCCUCGGUAAUGGCGAAUGGGAUCCA [A56G C84U],0.973
14,GGCCGGCAUGGUCCCAGCCUCCUCGCUGGCGCCGGAUGGGCAACAUUCCGAGGGGACCGUCCCCUCUGUAAUGGCGAAUGGGACCCA [C36A G67U],0.155
15,GGCCGGCAUGGUCCCAGCCUCCUCGCUGGCGCCGGCUGGGCAACAUUCCGAGGGGACCGUCCCCUCGGUAAUGGAGAAUGGGUCCCA [C75A A83U],0.151
16,GGCCGGCAUGGUCCCAGCCUCCUCGCUGUCGCCGGCUGGGCAACAUUCCGAGGGGACCGUCCCCUCGGUACUGGCGAAUGGGACCCA [G29U A71C],0.0302
